Laboratory results taken from US20260275378A1 (4D MOLECULAR THERAPEUTICS, published 2026).

Biological target: T1, complement C3b (UniProt P01024 23-667; P01024 749-1663)
T1 construct: purified C3b (Complement Technology Inc. cat #A114) in the cleavage assay; also called purified C3b; C3b fragment
Assay: C3b binding ELISA, C3b-coated plate, HEK293T supernatant
Protocol: C3b binding ELISA. The C3b binding ELISA is an in-house ELISA adapted from Nichols et. al. ([…] The assay tests if CpG-free miniCFH retains direct C3b binding ability by utilizing monoclonal anti-CFH blocking antibodies to prevent miniCFH binding to a C3b coated plate. The assay was carried out with both full-length recombinant CFH as proof of concept, and supernatants from 293T cells transfected with CpG-free miniCFH. As a control, we included conditions of mock incubation of CFH and transfected cell supernatant with no antibodies.

T1 sequence (P01024 23-667 limits assumed, chain 1 of 2): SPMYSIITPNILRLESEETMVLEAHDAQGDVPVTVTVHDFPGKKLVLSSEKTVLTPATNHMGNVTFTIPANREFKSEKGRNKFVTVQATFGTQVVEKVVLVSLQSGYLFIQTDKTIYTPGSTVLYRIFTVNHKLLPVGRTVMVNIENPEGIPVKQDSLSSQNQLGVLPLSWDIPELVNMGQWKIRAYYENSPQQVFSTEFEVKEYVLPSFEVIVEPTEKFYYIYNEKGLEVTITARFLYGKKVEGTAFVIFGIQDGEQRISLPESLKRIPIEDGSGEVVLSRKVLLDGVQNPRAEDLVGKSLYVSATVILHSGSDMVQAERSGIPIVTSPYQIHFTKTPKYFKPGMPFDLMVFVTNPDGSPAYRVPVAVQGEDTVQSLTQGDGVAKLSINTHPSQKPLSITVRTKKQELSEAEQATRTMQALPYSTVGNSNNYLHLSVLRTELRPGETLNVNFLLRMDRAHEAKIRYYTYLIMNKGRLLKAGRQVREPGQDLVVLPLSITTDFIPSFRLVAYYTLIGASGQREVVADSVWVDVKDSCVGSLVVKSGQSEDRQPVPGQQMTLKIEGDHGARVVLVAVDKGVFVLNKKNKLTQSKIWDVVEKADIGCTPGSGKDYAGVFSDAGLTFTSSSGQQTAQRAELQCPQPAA
T1 sequence (P01024 749-1663 limits assumed, chain 2 of 2): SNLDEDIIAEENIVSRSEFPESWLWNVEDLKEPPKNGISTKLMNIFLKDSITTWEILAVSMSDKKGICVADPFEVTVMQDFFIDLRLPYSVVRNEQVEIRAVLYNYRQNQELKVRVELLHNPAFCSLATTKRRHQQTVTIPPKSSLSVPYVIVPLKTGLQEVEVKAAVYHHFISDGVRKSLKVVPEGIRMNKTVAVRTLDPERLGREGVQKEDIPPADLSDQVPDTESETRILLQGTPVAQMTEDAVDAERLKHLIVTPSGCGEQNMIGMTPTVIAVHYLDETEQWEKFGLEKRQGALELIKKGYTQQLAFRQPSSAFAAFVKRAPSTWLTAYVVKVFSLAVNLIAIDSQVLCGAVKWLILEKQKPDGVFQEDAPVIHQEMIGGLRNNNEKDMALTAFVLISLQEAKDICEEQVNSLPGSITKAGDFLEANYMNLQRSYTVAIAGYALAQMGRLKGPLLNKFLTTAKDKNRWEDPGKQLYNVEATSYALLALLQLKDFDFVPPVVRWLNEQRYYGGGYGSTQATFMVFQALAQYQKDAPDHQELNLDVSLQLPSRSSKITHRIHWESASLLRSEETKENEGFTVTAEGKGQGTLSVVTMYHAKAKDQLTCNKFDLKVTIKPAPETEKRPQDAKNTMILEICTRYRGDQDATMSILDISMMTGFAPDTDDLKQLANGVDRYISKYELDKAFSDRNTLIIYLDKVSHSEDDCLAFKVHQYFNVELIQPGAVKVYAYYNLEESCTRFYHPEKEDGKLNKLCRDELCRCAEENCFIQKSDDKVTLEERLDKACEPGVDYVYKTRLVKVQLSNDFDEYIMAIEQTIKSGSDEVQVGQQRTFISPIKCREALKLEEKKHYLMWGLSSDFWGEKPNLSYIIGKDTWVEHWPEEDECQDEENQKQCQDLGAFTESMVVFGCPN

B1: miniCFH (shortened form of human complement factor H containing SCRs 1-4, 6-8 and 17-20) (other)
chain: EDCNELPPRRNTEILTGSWSDQTYPEGTQAIYKCRPGYRSLGNIIMVCRKGEWVALNPLRKCQKRPCGHPGDTPFGTFTLTGGNVFEYGVKAVYTCNEGYQLLGEINYRECDTDGWTNDIPICEVVKCLPVTAPENGKIVSSAMEPDREYHFGQAVRFVCNSGYKIEGDEEMHCSDDGFWSKEKPKCVEISCKSPDVINGSPISQKIIYKENERFQYKCNMGYEYSERGDAVCTESGWRPLPSCEEKSTLKPCDYPDIKHGGLYHENMRRPYFPVAVGKYYSYYCDEHFETPSGSYWDHIHCTQDGWSPAVPCLRKCYFPYLENGYNQNYGRKFVQGKSIDVACHPGYALPKAQTTVTCMENGWSPTPRCIRVKTCSKSSIDIENGFISESQYTYALKEKAKYQCKLGYVTADGETSGSITCGKDGWSAQPTCIKSIKTDCLSLPSFENAIPMGEKKDVYKAGEQVTYTCATYYKMDGASNVTCINSRWTGRPTCRDTSCVNPPTVQNAYIVSRQMSKYPSGERVRYQCRSPYEMFGDEEVMCLNGNWTEPPQCKDSTGKCGPPPPIDNGDITSFPLSVYAPASSVEYQCQNLYQLEGNKRITCRNGQWSEPPKCLHPCVISREIMENYNIALRWTAKQKLYSRTGESVEFVCKRGYRLSSRSHTLRTTCWDGKLEYPTCAKR
notes: Tested as unpurified serum-free supernatant of HEK293T cells transfected with the rAAV plasmid cassette; also called CpG-free miniCFH; short CFH
**Q.** Does B1 bind?
**A.** Result: binds
